Changes are numbered by the printed parent chain. Where two headings read alike, the source gives them in different places. Blank lines part the entries; values can stand above or below the molecule they belong to.
T1: SCD1 released from the linker-cleaved SCD1-cyt b5-b5R fusion (mouse, UniProt P13516 1-355)
T1 sequence: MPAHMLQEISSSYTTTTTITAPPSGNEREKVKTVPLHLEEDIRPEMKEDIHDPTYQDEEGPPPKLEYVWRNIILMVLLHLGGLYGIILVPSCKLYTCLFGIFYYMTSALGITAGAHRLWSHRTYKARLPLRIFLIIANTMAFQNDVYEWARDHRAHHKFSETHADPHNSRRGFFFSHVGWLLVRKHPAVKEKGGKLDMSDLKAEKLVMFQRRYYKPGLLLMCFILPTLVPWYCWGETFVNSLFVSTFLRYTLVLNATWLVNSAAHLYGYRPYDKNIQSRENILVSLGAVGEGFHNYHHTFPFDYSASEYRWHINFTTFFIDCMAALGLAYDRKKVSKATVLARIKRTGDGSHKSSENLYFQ

T2: full-length b5R released from the linker-cleaved cyt b5-b5R fusion (mouse, UniProt Q9DCN2 1-301)
T2 sequence: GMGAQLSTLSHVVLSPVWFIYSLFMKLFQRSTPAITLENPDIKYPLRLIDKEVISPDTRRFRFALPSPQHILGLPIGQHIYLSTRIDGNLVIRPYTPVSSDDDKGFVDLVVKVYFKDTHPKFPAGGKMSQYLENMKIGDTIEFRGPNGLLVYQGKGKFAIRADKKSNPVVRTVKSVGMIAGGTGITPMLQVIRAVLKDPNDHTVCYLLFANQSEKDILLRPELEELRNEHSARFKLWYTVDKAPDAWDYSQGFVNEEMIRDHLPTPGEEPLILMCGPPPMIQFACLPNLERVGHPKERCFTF

B1: full-length b5R released from the linker-cleaved SCD1-cyt b5-b5R fusion (enzyme, mouse)
chain: T2 sequence
B2: full-length cyt b5 released from the linker-cleaved SCD1-cyt b5-b5R fusion (natural protein, mouse)
chain: GMAGQSDKDVKYYTLEEIQKHKDSKSTWVILHHKVYDLTKFLEEHPGGEEVLREQAGGDATENFEDVGHSTDARELSKTYIIGELHPDDRSKIAKPSDTLITTVESNSSWWTNWVIPAISALAVALMYRLYMAEDENLYFQ
B3: full-length cyt b5 L121 Trp mutant released from the linker-cleaved cyt b5-b5R fusion (natural protein, mouse)
chain: MAGQSDKDVKYYTLEEIQKHKDSKSTWVILHHKVYDLTKFLEEHPGGEEVLREQAGGDATENFEDVGHSTDARELSKTYIIGELHPDDRSKIAKPSDTLITTVESNSSWWTNWVIPAISAWAVALMYRLYMAEDENLYFQ
B4: full-length cyt b5 V123 Trp mutant released from the linker-cleaved cyt b5-b5R fusion (natural protein, mouse)
chain: B3 chain with W121L, V123W
B5: full-length cyt b5 released from the linker-cleaved cyt b5-b5R fusion (natural protein, mouse)
chain: B3 chain with W121L
B6: full-length cyt b5 A124 Trp mutant released from the linker-cleaved cyt b5-b5R fusion (natural protein, mouse)
chain: B3 chain with W121L, A124W

What was measured:
Experiment in all cases: SEC
[1] = target: SCD1 released from the linker-cleaved SCD1-cyt b5 fusion (mouse)
[2] = target: T1, SCD1 released from the linker-cleaved …
[3] = target: B1
[4] = target: T2, full-length b5R released from the …
[5] = target: T2, full-length b5R released from the …; remark: listed apart in the source

percent of cyt b5 dissociated from the complex [1]: 50%
Molecule: full-length cyt b5 M126A released from the linker-cleaved SCD1-cyt b5 fusion (from UniProt P56395 1-134) (natural protein)

Molecule: B1
binding result [2]: binds

Molecule: B2
binding result [2]: binds
binding result [3]: binds

Molecule: B3
binding result [4]: binds

Molecule: B4
binding result [4]: binds

Molecule: B5
binding result [5]: binds

Molecule: B6
binding result [4]: binds
